From paper PMC10231317

How the values were obtained:
Test in all cases: native gel or EMSA
[1] = target: H3K18CubK23Cub nucleosome core particle (UniProt P68431)
[2] = target: unmodified nucleosome core particle (recombinant H3, H2A, H2B, H4 octamer on He601 DNA) (UniProt P68431)
[3] = target: H3K23Cub nucleosome core particle (UniProt P68431)
[4] = target: H3K18Cub nucleosome core particle (UniProt P68431)

Substance: N-terminal truncated mouse DNMT1 (residues 291–1620) (from UniProt P13864 291-1620) (enzyme)
- Kd [1]: 13 nM
- Kd [2]: 193 nM
- Kd [3]: 136 nM
- percent of NCP shifted at 250 nM mDNMT1 [3]: 70%
- Kd [4]: 116 nM
- percent of NCP shifted at 250 nM mDNMT1 [4]: 70%
